Test results published in the nanobody polyreactivity screen of Harvey et al. (2022).

Experiment: yeast display, Sf9 membrane polyspecificity reagent, FACS + sequencing; frameworks hold sequencing errors
In short: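 Nanobodies from a synthetic yeast display library (Saccharomyces cerevisiae BJ5465), induced 36–48 hours with galactose, were stained 1 hour at 4 °C with 10% biotinylated, detergent-solubilized Sf9 membrane reagent, enriched on streptavidin microbeads, then FACS-sorted. Anti-HA (expression) and streptavidin (reagent binding) fluorescence set low and high (top ~1%) gates. Polyreactivity labels come from the gate of origin. Genes were colony-PCR amplified, MiSeq 2 × 250 sequenced and filtered by CDR length.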

Row | Sequence | polyreactivity (PSR sort gate)
1 | QVQLVESGGGLVQAGGSLRLSCAASGFTFRRNAMRWYRQAPGKEWELVAAINFRDGSTYYADSLKGRFTISRDNAMIHVYLQMHSLKPEDSAVYYRAAVYYVRDRYDYWGQGTQETVSS | high polyreactivity
2 | QVQLVESGGGLVQAGGSLRLSCAASGFTFRRYAMGWYRQAPGKERELVAAISYGGGRTYYAESVKGRFTISRDNAKNTVYLQMNSLKPEDTAVYYCAADVLSRYVGEADYWGQGTQVTVSS | high polyreactivity
3 | QVQLVESGGGLVQAGGSLRLSCAASGFTFRRYAMGWYRQAPGKERELVAAITRTGAGTYYADSVKGRFTISRDNAKNTVYLQMNSLKPEDTAVYYCAAAFYYASAMDYWGQGTQVTVSS | high polyreactivity
4 | QVQLVESGGGLVQAGGSLRLSCAASGFTFRRYAMGWYRQAPGKERELVARISFNGGSTFYADSVKGRFTISRDNAKNTVYLQMNSLKPEDTAVYYCAAVFGGRSLSRTYGYDYWGQGTQVTVSS | high polyreactivity
5 | QVQLVESGGGLVQAGGSLRLSCAASGFTFRRYAMGWYRQAPWKESELVAAITRDGITNYAASVKGRFTLSRDNAKNTVYFQMNILKPEDTAVYYCARRTGRARLDYWGQGTQVSVSS | high polyreactivity
6 | QVQLVESGGGLVQAGGSLRLSCAASGFTFRRYDMGWYRQAPGKERELVATLNRGGSTDYADSVKGRFTISRDNAKNTVYFQLNSLKPEETAVYYCATRYYSSRNWSEYYYWGQGTQVTVSS | high polyreactivity
7 | QVQLVESGGGLVQAGGSLRLSCAASGFTFRSYAMGWYRQAPGKERELVAAISSGGSTYYADSVKGRFTISRDNAKNTVYLQMNSLKPEDTAVYYCAARRYYGYGHWGQGTQVNVSS | high polyreactivity
8 | QVQLVESGGGLVQAGGSLRLSCAASGFTFRSYAMGWYRQAPGKERELVADISIRGGGTYYADTVKGRFTISRDNAKNTVYLQMNSLKPEDTAVYYCAAERYKPFLWPRYDYWGQGTQVTVSS | low polyreactivity
9 | QVQLVESGGGLVQAGGSLRLSCAASGFTFRSYAMGWYRQAPGKERELVASISPGATTKYADSVKGRFTISRDNAKNTVYLQMNSLKPEDTAVYYYEVYQILVRRLSYWGQGTQVTVSC | high polyreactivity
10 | QVQLVESGGGLVQAGGSLRLSCAASGFTFRTYAMGWYRQAPGKERELVAAINTGGGTNYADSVKGRFTISRDNAKNTVYLQMNSLKPEDTAVYFCNAVHYYYYYWYSLYDSWGKGTQVTVSS | high polyreactivity
11 | QVQLVESGGGLVQAGGSLRLSCAASGFTFRTYAMGWYRQAPGKERELVADISGSGGSTYYADSVKGRFTISRDNAKNTVYLQMISLKPEDTAVYYCAATIYNWGYEREYWGQGTQVTVSS | high polyreactivity
12 | QVQLVESGGGLVQAGGSLRLSCAASGFTFRWYAMGWYRQAPGKERELVAAISTTGGSTYYADSVKGRFTISRDNAKNTVYFQLNSLKPEDTAVYYCNVYSGRYWESHKFDSWGQGTQVTVSS | high polyreactivity
13 | QVQLVESGGGLVQAGGSLRLSCAASGFTFRWYAMGWYRQAPGKERELVAAITHSGGSTYYADSVKGRFTISRDNAKNTVYLQMNSLKPEDTAVYYCAAGYIRKYSAFRYNYWGQGTQVTVSS | high polyreactivity
14 | QVQLVESGGGLVQAGGSLRLSCAASGFTFRWYAMGWYRQAPGKERELVADITRHGGSTYYADSVKGRFTISRDNAKNTVYLQMNSLKPEDTAVYYCAKQNETPWQAYYFDWPEFDYWGQGTQVTVSS | low polyreactivity
15 | QVQLVESGGGLVQAGGSLRLSCAASGFTFRWYAMGWYRQAPGKETELVAAISRDGSTNYADSVKGRFTISRDNAKNTVYLQMNSLKPEDTAFYYCATDSYPWGRSTGWRKQKGYYWGQGTKVTVSS | high polyreactivity
16 | QVQLVESGGGLVQAGGSLRLSCAASGFTFRWYDMGWYRQAPGKERELVAVISRSGGRTYYADSVKGRFTISRDNAKNTVYLQMNSLKPEDTAVYYCAADWWGYDGRYDYWGQGTQVTVSS | high polyreactivity
17 | QVQLVESGGGLVQAGGSLRLSCAASGFTFRWYTMGWYRQAPGKERELVAAISWSGTSTYYADSVKGRFTISRDNAKNTVYLQMNSLKPEDTAVYYCAAADFYYTGADDYWGQGTQVTVSS | high polyreactivity
18 | QVQLVESGGGLVQAGGSLRLSCAASGFTFRWYTMGWYRQAPGKERELVASINWSTGSTYYADSVKGRFTISRDNAKNTVYLQMNSLKPEDTAVYYCAATAWYNSYFGLDYWGQGTQVTVSS | high polyreactivity
19 | QVQLVESGGGLVQAGGSLRLSCAASGFTFRYNAMGWYRQAPGKERELVAAITNSGGGTYYADSVKGRFTISRDNAKNTVYLQMNSLKPEDTAVYYCNAKRTNRYVWGKYDYWGQGTQVTVSS | high polyreactivity
20 | QVQLVESGGGLVQAGGSLRLSCAASGFTFRYNAMGWYRQAPGKERELVASITYSGGTTTYADSVKGRFTISRDNAKNTVYLQMNSLKPEDTAVYYCAARGYFSGYRVYYWGQGTQVTVSS | high polyreactivity
21 | QVQLVESGGGLVQAGGSLRLSCAASGFTFRYYAMGWDRQAPGKERDWVAAITRRGGSTYYSDSVKGRFTISRDNAKNTVYLLMNSLKPEDTAVYYCAASLWTTSADYDYWGQGTQVTVSS | high polyreactivity
22 | QVQLVESGGGLVQAGGSLRLSCAASGFTFRYYAMGWYRQAAGKDRELVAAISSGGRTYYADSVKGRFKISRDNAKNTVYLQMNSLKPADTAVYYCNASRHFRRVEYDYWGQGTQVTVSS | high polyreactivity

Row | Sequence | polyreactivity (PSR sort gate)
23 | QVQLVESGGGLVQAGGSLRLSCAASGFTFRYYAMGWYRQAPGKERELVAAIDWSGGSTYYADSVKGRFTISRDNAKNTVYLQMNSLKPEDTAVYYCNAVLVPREYYSWGQGTQVTVSS | low polyreactivity
24 | QVQLVESGGGLVQAGGSLRLSCAASGFTFRYYAMGWYRQAPGKERELVAAISKSGGSTYYADSVKGRFTISRDNAKNTVYLQMNSLKPEDTAVYYCAARNWFSYYQIMDYWGQGTQVTVSS | high polyreactivity
25 | QVQLVESGGGLVQAGGSLRLSCAASGFTFRYYAMGWYRQAPGKERELVAAISKSGGSTYYADSVKGRFTISRDNAKNTVYLQMNSLKPEDTGVFYCAADYAHIGYDYDYWGQGTQVTVSS | high polyreactivity
26 | QVQLVESGGGLVQAGGSLRLSCAASGFTFRYYAMGWYRQAPGKERELVAAISRSDSRTYADSVKGRFTISRDNAKNTVYLQMTSLNPEDTAVYYCAARIRPLYANVRYGYWGQGTQVTVSS | high polyreactivity
27 | QVQLVESGGGLVQAGGSLRLSCAASGFTFRYYAMGWYRQAPGKERELVAAISSRGGTTYYADSVKGRFTISRDNAKNTVYLQMNSLKPEDTAVYYCAAVRPPSYYYWGQGTQVTVSS | high polyreactivity
28 | QVQLVESGGGLVQAGGSLRLSCAASGFTFRYYTMGWYRQAPGKEREFVAAIRGGGSSTYYADSVKGRFTISRDNAKNTVYLQMTSLKPEDTAVYSCAAVTSQLYGYRYYYGGQGTQVTVSS | high polyreactivity
29 | QVQLVESGGGLVQAGGSLRLSCAASGFTFRYYTMGWYRQAPGKERELVASISRRGGSTYYADSVKGRFTISRDNAKNTVYLQMNSLKPEDTAVYYCNTLSQVFASRAPKFDYWGHGTQVTVSS | high polyreactivity
30 | QVQLVESGGGLVQAGGSLRLSCAASGFTFSDNAMGWYRQAPGKDRELVAAISRSGGNTHYADSVKGRFTISRDNAKNTVYFQMNSLKPEDTAVYYCAARVQGRGYGYYYWGQGTQVSVSS | high polyreactivity
31 | QVQLVESGGGLVQAGGSLRLSCAASGFTFSDNAMGWYRQAPGKERELVAAISRSGGRTYYADSVKGRFTISRDNAKNTVYLQMNSLKPEDTAVYYCAAYQYGMDYWGQGTQVTVSS | high polyreactivity
32 | QVQLVESGGGLVQAGGSLRLSCAASGFTFSENAMGWYRQAPGKERELVADITNGASTNYADSVKGRFTISRDNEKNTVYLLMNSLKPEDTAVYYCATDSYPGLNPDFDYWGLGTQVTVSS | low polyreactivity
33 | QVQLVESGGGLVQAGGSLRLSCAASGFTFSFYAMGWYRQAPGKERELVATIRSGGRTYYADSVKGRFTISRDNAKNTVYLQRNSLKPEDTAVYYCAADDHYGRGFQYYYWGQGTQVTVSS | high polyreactivity
34 | QVQLVESGGGLVQAGGSLRLSCAASGFTFSGYAMGWYRHAPGKERELVAAISSRGGRTYYADSVKGRFTISRDNAKNTVYLQMNSLKPEDTAVYYCAARSRRTDNSVQFDYWGQGTQVTVSS | high polyreactivity
35 | QVQLVESGGGLVQAGGSLRLSCAASGFTFSGYAMGWYRQAPGKERELVAASTRRTGTTYYADSVKGRFTISRDNAKNTVYLQMNSLKPEDTAVYYCNKGYPSPPAGEYGYWGQGTQVTVSS | high polyreactivity
36 | QVQLVESGGGLVQAGGSLRLSCAASGFTFSGYDMGWSRQAPGKERELVAGISSGGVSTTYADSVKGRFTISRDNAKNTVYLQMNSRKPEDTAVYYCNAEWTSFDWGQGTQVTVSS | low polyreactivity
37 | QVQLVESGGGLVQAGGSLRLSCAASGFTFSGYDMGWYRPAPGKERELVAGISSGGVSTTYADSVKGRFTISRDNAKNTVYLQMNSLKPEDTAVYYCNAEWTSFDWGQGTQVTVSS | low polyreactivity
38 | QVQLVESGGGLVQAGGSLRLSCAASGFTFSIYAMGWYRQAPGKERELVAAISGRGSSTYYADSVKGRFTISRDNAKNTVYLQMNSLKPEDTAVYYCKKFHHAYFSSVYSYAGGYWGQGTQVTVSS | high polyreactivity
39 | QVQLVESGGGLVQAGGSLRLSCAASGFTFSKYAMGCSRQAPGKETELVAAISRSAGSTYYADSVKRRFTISREYAKNTVYLQMNSLKPEDTAVYYCARDNPRRPSGYNYSGQGTQVTVSS | high polyreactivity
40 | QVQLVESGGGLVQAGGSLRLSCAASGFTFSKYAMGWYRQAPGKEREFVAAISSRGGRTYYADSVKGRFTISRDNAKNTVYLQMNSLKPEDTAVYYCAVDVHLVTEYDYWGQGTQVTVSS | high polyreactivity
41 | QVQLVESGGGLVQAGGSLRLSCAASGFTFSLYAMGWYRQAPGKERELVARISDSGGGTYYADSVKGRFTISRDNAKNTVYLQMNSLKPEDTAVYYCAAVSVWYVTSTSYRYWRYDYWGQGTQVTVSS | high polyreactivity
42 | QVQLVESGGGLVQAGGSLRLSCAASGFTFSNNAMGRYRQAPGKEREFVAAISGTGGSTYYADSLKGRFTISRDNANNTVYLQMNSLKPEDTAVYYCARRRTYPPGRYYYWGQGTQETVSS | high polyreactivity
43 | QVQLVESGGGLVQAGGSLRLSCAASGFTFSNYAMGWYRQAPGKERELVAAITGSGGSTFYADSVKGRFTISRDNAKNTVYLQMNSLKPEDTAVYYCAAYYWSSKYDYWGQGTQVTVSS | high polyreactivity
